Test results published in US20250027068.
Residue numbers refer to the chain shown, from its start.

B1: PRT-14 (protein)
chain: MANQEIRYSEVTPYTVTSVWTKGVTPPADFTQGEDVFHAPYIANQGWYDITKTFNGKDDLLCGAATAGNMLHWWFDQNKEQIERYLKKHPEKQKINFNGEQMFDVKEAIDTKDSQTDSELFEYFKEKAFPYLSTKHLGVFPDHVLDMFINGYRLSLTNHGPTPVKEGSKDPRGGIFDAVFTRGDQSKLLTNRHDFKEKTLSEISDLIKKELTEGKALGLSHTYANVRINHVINLWGADFDSEGNLEAIYVTDSDSNASIGMKKYFVGVNSAGKVAISAKEIKEDNIGAQVLGLFTLSTGQDIWNQTN
B2: PRT-160 (protein)
chain: MANQEIRYSEVTPYHVTTVWTDGVKPPTDFIKGEDVFHAPYKAHQGWYDITKTFNGKDDLLCGAATAGNMLHWWFDQNKDQIKRYLEEHPEKQKINFNGEQMFDVKEAIDTKNHQLDSKLFEYFKEKAFPYLSTKHLGVFPDHVIDMFINGYRLSLTNHGPTPVKEGSKDPRGGIFDAVFTRGDQSKLLTSRHDFKEKNLKEISDLIKKELQEGKALGLSHTYANVRINHVINLWGADFDSNGNLKAIYVTDSDSNASIGMKKYFVGVNSAGKVAISAKEIKEDNIGAQVLGLFTLSTGQDSWNQTN
B3: PRT-161 (protein)
chain: B2 chain with T18I
B4: PRT-162 (protein)
chain: MANQEIRYSEVTPYHVTSVWTKGVTPPANFTQGEDVFHAPYVANQGWYDITKTFNGKDDLLCGAATAGNMLHWWFDQNKDQIKRYLEEHPEKQKINFNGEQMFDVKEAIDTKNSQTNSELFNYFKEKAFPYLSTKHLGVFPDHVIDMFINGYRLSLTNHGPTPVKEGSKDPRGGIFDAVFTRGDQSKLLTSRHDFKEKNLKEISDLIKKELTEGKALGLSHTYANVRINHVINLWGADFDSNGNLKAIYVTDSDSNASIGMKKYFVGVNSAGKVAISAKEIKEDNIGAQVLGLFTLSTGQDSWNQTN
B5: PRT-163 (protein)
chain: B4 chain with S114D
B6: PRT-164 (protein)
chain: B4 chain with T116E
B7: PRT-165 (protein)
chain: B4 chain with K57G
B8: PRT-166 (protein)
chain: B4 chain with T53A, N55D, K57G
B9: PRT-15 (protein)
chain: MANQEIRYSEVTPYTITSVWTKGVTPPTNFTQGEDVFHAPYVANQGWYDITKTFNGKDDLLCGAATAGNMLHWWFDQNKDEIERYLKEHPEKQKINFNGEQMFDVKEAIDTKDSQTDSKLFEYFKDKAFPYLSTKHLGVFPDHVIDMFINGYRLSLTNHGPTPVKRGSKDPRGGIFDAVFTRGDQSKLLTSRHDFKEKNLNEISDLIKQELTEGKALGLSHTYANVRINHVINLWGADFNSNGNLKAIYVTDSDSNASIGMKKYFVGVNKAGKVAISAKEIKGDNIGAQVLGLFTLSTGQDIWEQTN
B10: PRT-16 (protein)
chain: MANQEIRYSEETPYHITSVWTKGVTPPTDFTQGEDVFHAPYVANQGWYDITKTFNGKDDLLCGAATAGNMLHWWFDQNKDQIERYLKKHPEKQKINFNGEQMFDVKEAIDTKDSQTDSKLFEYFKDKAFPYLSTKHLGVFPDHVLDMFINGYRLNLTNHGPTPVKEGSKDPRGGIFDAVFTRGDQSKLLTSRHDFKEKNLKEISDLIKQELQEGKALGLSHTYANVRINHVINLWGADFDSNGNLKAIYVTDSDSNASIGMKKYYVGVNAAGKVAISAKEIEEDNIGAQVLGLFTLSLGQDIWNQTN
B11: PRT-17 (protein)
chain: MANQEIRYSEVTPYHITSVWTKGVTPPTNFTQGEDVFHAPYKANQGWYDITKTFNGKDDLLCGAATAGNMLHWWFDQNKEEIERYLKEHPEKQKINFNGEQMFDVKEAIDTKGSQTDSKLFNYFKDKAFPYLSTKHLGVFPDHVLDMFINGYRLSLTNHGPTPVKEQSKDPRGGIFDAVFTRGDQSKLLTSRHDFKEKNLKEISDLIKKELTEGKALGLSHTYANVRINHVINLWGADFDSEGNLEAIYVTDSDSNASIGMKKYFVGVNSAGKVAISAKEIKGDNIGAQVLGLFTLSTGQDIWEKTN
B12: PRT-18 (protein)
chain: MANQEIRYSEETPYHVTSVWTKGVTPPTNFTQGEDVFHAPYIANQGWYDITKTFNGKDDLLCGAATAGNMLHWWFDQNKEEIEKYLEEHPEKQKINFNGEQMFDVKEVIDTKDSQLDSKLFEYFKEKAFPYLSTKHLGVFPDHVIDMFINGYRLNLTNHGPTPVKEGSKDPRGGIFDAVFTRGDQSKLLTERHDFKEKTLKEISQLIKQELTEGKALGLSHTYANVRINHVINLWGADFDSEGNLEAIYVTDSDSNASIGMKKYFVGVNSAGKVAISAKEIEEDNIGAQVLGLFTLSTGQDIWEQTN
B13: PRT-19 (protein)
chain: MANQEIRYSEESPSVVTSVWTKGVTPPANFTYGEDVFHAPYIANQGWYDITKTFNGKDDLLCGAATAGNMLHWWFDQNKDEIEAYLKKHPEKQKINFNGEQMFDVKEAIDTKDDQTNSKLFNYFKDKAFPYLSTKHLGVFPDHVLDMFINGYRLNLTNHGPTPVKEGSKDPRGGIFDAVFTRGDQSKLLTSRHDFKEKTLKEISDLIKQELTEGKALGLSHTYANVRINHVINLWGADFNSEGNLKAIYVTDSDSNASIGMKKYFVGVNAAGKVAISAKEIKDDNIGAQVLGLFTLSTGQDIWNQTN

Molecular target: pooled human IgG

Going from B1 to B9, the Enzyme Activity Endpoint Assay: Fab′2 rises from 18 ng/µL to 52 ng/µL.

Compared with B10, B11 is higher in Enzyme Activity Endpoint Assay: Fab′2: 0 ng/µL for the first, 53 ng/µL for the second.

Going from B12 to B13, the Enzyme Activity Endpoint Assay: Fab′2 falls from 44 ng/µL to 42 ng/µL.

First: B1
Second: B9
The Enzyme Activity Endpoint Assay: Fc of the first is lower: 94 ng/µL for the first, 136 ng/µL for the second.

First: B10
Second: B11
The Enzyme Activity Endpoint Assay: Fc of the first is lower: 0 ng/µL for the first, 116 ng/µL for the second.

Compared with B12, B13 is higher in Enzyme Activity Endpoint Assay: Fc: 105 ng/µL for the first, 108 ng/µL for the second.

Compared with B1, B9 is higher in Enzyme Activity Endpoint Assay: IgG: 13 ng/µL for the first, 18 ng/µL for the second.

Going from B10 to B11, the Enzyme Activity Endpoint Assay: IgG falls from 151 ng/µL to 34 ng/µL.

First: B12
Second: B13
The Enzyme Activity Endpoint Assay: IgG of the first is lower: 12 ng/µL for the first, 13 ng/µL for the second.

First: B1
Second: B9
The Enzyme Activity Endpoint Assay: scIgG of the first is higher: 43 ng/µL for the first, 17 ng/µL for the second.

B10 and B11 are the same in Enzyme Activity Endpoint Assay: scIgG: 0 ng/µL for the first, 0 ng/µL for the second.

First: B12
Second: B13
The Enzyme Activity Endpoint Assay: scIgG of the first is lower: 11 ng/µL for the first, 13 ng/µL for the second.

Compared with B2, B3 is higher in Enzyme Activity Endpoint Assay (purified): Fab'2: 642 ng/µL for the first, 669 ng/µL for the second.

Going from B4 to B5, the Enzyme Activity Endpoint Assay (purified): Fab'2 falls from 729 ng/µL to 706 ng/µL.

Going from B6 to B7, the Enzyme Activity Endpoint Assay (purified): Fab'2 rises from 508 ng/µL to 783 ng/µL.

Work on B8 yielded an Enzyme Activity Endpoint Assay (purified): Fab'2 of 597 ng/µL.

First: B2
Second: B3
The Enzyme Activity Endpoint Assay (purified): Fc of the first is lower: 168 ng/µL for the first, 172 ng/µL for the second.

Compared with B4, B5 is lower in Enzyme Activity Endpoint Assay (purified): Fc: 196 ng/µL for the first, 184 ng/µL for the second.

Compared with B6, B7 is higher in Enzyme Activity Endpoint Assay (purified): Fc: 203 ng/µL for the first, 204 ng/µL for the second.

With B8 the Enzyme Activity Endpoint Assay (purified): Fc was 161 ng/µL.

B2 and B3 are the same in Enzyme Activity Endpoint Assay (purified): IgG: 0 ng/µL for the first, 0 ng/µL for the second.

First: B4
Second: B5
The Enzyme Activity Endpoint Assay (purified): IgG of the first is lower: 0 ng/µL for the first, 29 ng/µL for the second.

B6 and B7 are the same in Enzyme Activity Endpoint Assay (purified): IgG: 0 ng/µL for the first, 0 ng/µL for the second.

B8 gave an Enzyme Activity Endpoint Assay (purified): IgG of 0 ng/µL.

B2 and B3 are the same in Enzyme Activity Endpoint Assay (purified): scIgG: 0 ng/µL for the first, 0 ng/µL for the second.

B4 and B5 are the same in Enzyme Activity Endpoint Assay (purified): scIgG: 0 ng/µL for the first, 0 ng/µL for the second.

Compared with B6, B7 is lower in Enzyme Activity Endpoint Assay (purified): scIgG: 85 ng/µL for the first, 0 ng/µL for the second.

B8 was tested, and the Enzyme Activity Endpoint Assay (purified): scIgG was 0 ng/µL.
